In the assay the target is HPV52L1-C428A (human papillomavirus type 52 (HPV52)). The experiment in a line: SEC; HPSEC on TSK Gel G 5000 pwxl, 10 mM PB pH 6.5, 0.5 M NaCl; serial molar ratios of C175A and C428A mutants; chVLP fraction analysed by SDS-PAGE and western blotting; pentamers to VLP. Background: In gel filtration, larger molecules generally elute earlier.

On to HPV16L1-C175A (domain or fragment), for which the stoichiometry N (C175A:C428A molar ratio) was 1.

The values above are taken from publication PMC7275066.
